# T1: canine IL-13 (canine, UniProt Q9N0W9 19-131, limits assumed, biotin-labeled in the Octet assay (site not stated))
# T1 construct: Biotin-labeled and loaded on SA biosensors for the kinetics; unlabeled in the DH82 cell assay; also called cIL-13; canine Interleukin-13
# T1 sequence (looked up): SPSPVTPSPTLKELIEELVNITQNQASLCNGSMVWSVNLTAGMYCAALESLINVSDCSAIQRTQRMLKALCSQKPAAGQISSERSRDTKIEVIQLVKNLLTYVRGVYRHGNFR
# T2: canine IL-4 (canine, UniProt O77762 25-132, biotin-labeled in the Octet assay (site not stated))
# T2 sequence (looked up): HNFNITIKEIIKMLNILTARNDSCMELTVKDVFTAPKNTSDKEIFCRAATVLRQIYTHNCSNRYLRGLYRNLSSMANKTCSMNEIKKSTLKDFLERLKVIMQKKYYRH
# B1: cIL-13Rα2-cIgGB-Fc-YD (Fc fusion)
# chain: SMLSNAEIKVNPPQDFEIVDPGYLGYLSLQWQPPLFPDNFKECTIEYELKYRNIDSENWKTIITKNLHYKDGFDLNKGIEAKINTLLPAQCTNGSEVRSSWAETTYWTSPQGNRETKIQDMDCVYYNWQYLVCSWKPGMGVHFDTNYQLFYWYEGLDHSAECTDYIKVNGKNMGCRFPYLESSDYKDFYICVNGSSESQPIRPSYFIFQLQNIVKPMPPDYLSLTVKNSEEINLKWNMPKGPIPAKCFIYEIEFTEDGTTWVTTTVENEIQITRTSNESQKLCFLVRSKVNIYCSDDGIWSEWSDEQCWKGDIWKETPKRENGRVPRPPDCPKCPAPEMLGGPSVFIFPPKPKDTLYIARDPEVTCVVVDLDPEDPEVQISWFVDGKQMQTAKTQPREEQFNGTYRVVSVLPIGHQDWLKGKQFTCKVNNKALPSPIERTISKARGQAHQPSVYVLPPSREELSKNTVSLTCLIKDFFPPDIDVEWQSNGQQEPESKYRTTPPQLDEDGSYFLYSKLSVDKSRWQRGDTFICAVMHEALHNHYTQESLSHSPGK
# notes: Homodimer; also called cIL-13Rα2-cFc-YD
# B2: cIL-13Rα2-cIgGB-Fc (Fc fusion)
# chain: SMLSNAEIKVNPPQDFEIVDPGYLGYLSLQWQPPLFPDNFKECTIEYELKYRNIDSENWKTIITKNLHYKDGFDLNKGIEAKINTLLPAQCTNGSEVRSSWAETTYWTSPQGNRETKIQDMDCVYYNWQYLVCSWKPGMGVHFDTNYQLFYWYEGLDHSAECTDYIKVNGKNMGCRFPYLESSDYKDFYICVNGSSESQPIRPSYFIFQLQNIVKPMPPDYLSLTVKNSEEINLKWNMPKGPIPAKCFIYEIEFTEDGTTWVTTTVENEIQITRTSNESQKLCFLVRSKVNIYCSDDGIWSEWSDEQCWKGDIWKETPKRENGRVPRPPDCPKCPAPEMLGGPSVFIFPPKPKDTLLIARTPEVTCVVVDLDPEDPEVQISWFVDGKQMQTAKTQPREEQFNGTYRVVSVLPIGHQDWLKGKQFTCKVNNKALPSPIERTISKARGQAHQPSVYVLPPSREELSKNTVSLTCLIKDFFPPDIDVEWQSNGQQEPESKYRTTPPQLDEDGSYFLYSKLSVDKSRWQRGDTFICAVMHEALHNHYTQESLSHSPGK
# notes: Homodimer; also called cIL-13Rα2-cFc; cIL13Rα2-cFc
# B3: cIL-13Rα2-cIgGB-Fc-YTE (Fc fusion)
# chain: SMLSNAEIKVNPPQDFEIVDPGYLGYLSLQWQPPLFPDNFKECTIEYELKYRNIDSENWKTIITKNLHYKDGFDLNKGIEAKINTLLPAQCTNGSEVRSSWAETTYWTSPQGNRETKIQDMDCVYYNWQYLVCSWKPGMGVHFDTNYQLFYWYEGLDHSAECTDYIKVNGKNMGCRFPYLESSDYKDFYICVNGSSESQPIRPSYFIFQLQNIVKPMPPDYLSLTVKNSEEINLKWNMPKGPIPAKCFIYEIEFTEDGTTWVTTTVENEIQITRTSNESQKLCFLVRSKVNIYCSDDGIWSEWSDEQCWKGDIWKETPKRENGRVPRPPDCPKCPAPEMLGGPSVFIFPPKPKDTLYITREPEVTCVVVDLDPEDPEVQISWFVDGKQMQTAKTQPREEQFNGTYRVVSVLPIGHQDWLKGKQFTCKVNNKALPSPIERTISKARGQAHQPSVYVLPPSREELSKNTVSLTCLIKDFFPPDIDVEWQSNGQQEPESKYRTTPPQLDEDGSYFLYSKLSVDKSRWQRGDTFICAVMHEALHNHYTQESLSHSPGK
# notes: Homodimer; also called cIL-13Rα2-cFc-YTE
# B4: cIL-13Rα1-cIgGB-Fc-YTE (Fc fusion)
# chain: GGVAAPTETQPPVTNLSVSVENLCTVIWTWDPPEGASPNCTLRYFSHFDNKQDKKIAPETHRSKEVPLNERICLQVGSQCSTNESDNPSILVEKCTPPPEGDPESAVTELQCVWHNLSYMKCTWLPGRNTSPDTNYTLYYWHSSLGKILQCEDIYREGQHIGCSFALTNLKDSSFEQHSVQIVVKDNAGKIRPSFNIVPLTSHVKPDPPHIKRLFFQNGNLYVQWKNPQNFYSRCLSYQVEVNNSQTETNDIFYVEEAKCQNSEFEGNLEGTICFMVPGVLPDTLNTVRIRVRTNKLCYEDDKLWSNWSQAMSIGENTDPTPKRENGRVPRPPDCPKCPAPEMLGGPSVFIFPPKPKDTLYITREPEVTCVVVDLDPEDPEVQISWFVDGKQMQTAKTQPREEQFNGTYRVVSVLPIGHQDWLKGKQFTCKVNNKALPSPIERTISKARGQAHQPSVYVLPPSREELSKNTVSLTCLIKDFFPPDIDVEWQSNGQQEPESKYRTTPPQLDEDGSYFLYSKLSVDKSRWQRGDTFICAVMHEALHNHYTQESLSHSPGK
# notes: Homodimer; also called cIL-13Rα1-cFc-YTE
# B5: cIL-4Rα-cIgGB-Fc (Fc fusion)
# chain: VKVLHEPSCFSDYISTSVCQWKMDHPTNCSAELRLSYQLDFMGSENHTCVPENREDSVCVCSMPIDDAVEADVYQLDLWAGQQLLWSGSFQPSKHVKPRTPGNLTVHPNISHTWLLMWTNPYPTENHLHSELTYMVNVSNDNDPEDFKVYNVTYMGPTLRLAASTLKSGASYSARVRAWAQTYNSTWSDWSPSTTWLNYYEPWEQHLPPKRENGRVPRPPDCPKCPAPEMLGGPSVFIFPPKPKDTLLIARTPEVTCVVVDLDPEDPEVQISWFVDGKQMQTAKTQPREEQFNGTYRVVSVLPIGHQDWLKGKQFTCKVNNKALPSPIERTISKARGQAHQPSVYVLPPSREELSKNTVSLTCLIKDFFPPDIDVEWQSNGQQEPESKYRTTPPQLDEDGSYFLYSKLSVDKSRWQRGDTFICAVMHEALHNHYTQESLSHSPGK
# notes: Homodimer held by hinge disulfides; made in CHO cells, purified on protein A; also called cIL-4Rα-cFc; cIL4Rα-cFc
# B6: cIL-4Rα-cIgGB-Fc-H (Fc fusion)
# chain: VKVLHEPSCFSDYISTSVCQWKMDHPTNCSAELRLSYQLDFMGSENHTCVPENREDSVCVCSMPIDDAVEADVYQLDLWAGQQLLWSGSFQPSKHVKPRTPGNLTVHPNISHTWLLMWTNPYPTENHLHSELTYMVNVSNDNDPEDFKVYNVTYMGPTLRLAASTLKSGASYSARVRAWAQTYNSTWSDWSPSTTWLNYYEPWEQHLPPKRENGRVPRPPDCPKCPAPEMLGGPSVFIFPPKPKDTLLIARTPEVTCVVVDLDPEDPEVQISWFVDGKQMQTAKTQPREEQFNGTYRVVSVLPIGHQDWLKGKQFTCKVNNKALPSPIERTISKARGQAHQPSVYVLPPSREELSKNTVSLTCLIKDFFPPDIDVEWQSNGQQEPESKYRTTPPQLDEDGSYFLYSKLSVDKSRWQRGDTFICAVMHEALHHHYTQESLSHSPGK
# notes: Homodimer; also called cIL-4Rα-cFc-H; cIL-4Rα-cFc-NH
# B7: cIL-4Rα-cIgGB-Fc-YTE (Fc fusion)
# chain: VKVLHEPSCFSDYISTSVCQWKMDHPTNCSAELRLSYQLDFMGSENHTCVPENREDSVCVCSMPIDDAVEADVYQLDLWAGQQLLWSGSFQPSKHVKPRTPGNLTVHPNISHTWLLMWTNPYPTENHLHSELTYMVNVSNDNDPEDFKVYNVTYMGPTLRLAASTLKSGASYSARVRAWAQTYNSTWSDWSPSTTWLNYYEPWEQHLPPKRENGRVPRPPDCPKCPAPEMLGGPSVFIFPPKPKDTLYITREPEVTCVVVDLDPEDPEVQISWFVDGKQMQTAKTQPREEQFNGTYRVVSVLPIGHQDWLKGKQFTCKVNNKALPSPIERTISKARGQAHQPSVYVLPPSREELSKNTVSLTCLIKDFFPPDIDVEWQSNGQQEPESKYRTTPPQLDEDGSYFLYSKLSVDKSRWQRGDTFICAVMHEALHNHYTQESLSHSPGK
# notes: Homodimer; also called cIL-4Rα-cFc-YTE
# What was measured:
# canine IL-13 [1] = biological target: T1, canine IL-13; assay: BLI (Octet HTX), biotin-cIL-13 on SA biosensors, fusion protein in solution, 1:1 fit
# Procedure: (§1) The binding constants for the cFc fusion proteins provided in Tables 3 and 4 below, were determined using OCTET® HTX. All kinetics measurements were performed by OCTET® HTX using SA® biosensors and DATA ACQUISITION® 12.0 software. 10 μg/mL of biotin-labeled antigen, either canine IL-4 (cIL-4) or canine IL-13 (cIL-13) were loaded onto the SAR biosensors for 120 seconds. Next, the biosensors were placed into 1×pH 7.0 TBS/Casein buffer for 60 seconds for the blocking phase. For the association phase, antigen loaded biosensors were placed into 2-fold serial dilutions from 1 μM down to 15.6 nM of the wild-type, the bispecific, or the FcRn-mutant receptor Fc-fusions that recognized the cIL-4 or cIL-13 antigen in 1×pH 7.0 TBS/Casein buffer for 30 seconds. The last well was buffer alone and that sensor was used for reference sensor subtraction. Finally, the biosensors were placed into 1×pH 7.0 TBS/Casein buffer for 120 seconds for the dissociation phase. The results were then analyzed using Data Analysis 12.0 software and the curves were fitted using a 1:1 binding model.
# canine IL-13 [2] = biological target: T1, canine IL-13; assay: BLI (Octet)
# Procedure: as §1
# canine IL-13 [3] = biological target: T1, canine IL-13; assay: BLI (Octet); summary table, rounded from Table 4
# canine IL-13 [4] = biological target: T1, canine IL-13; assay: cell-based or functional assay
# canine IL-13 [5] = biological target: T1, canine IL-13; assay: cell-based or functional assay; remark: listed apart in the source
# canine IL-4 [6] = biological target: T2, canine IL-4; assay: cell-based or functional assay
# canine IL-4 [7] = biological target: T2, canine IL-4; assay: BLI (Octet HTX), biotin-cIL-4 on SA biosensors, fusion protein in solution, 1:1 fit
# Procedure: as §1
# canine IL-4 [8] = biological target: T2, canine IL-4; assay: BLI (Octet); summary table, rounded from Table 3
# canine IL-4 [9] = biological target: T2, canine IL-4; assay: cell-based or functional assay; remark: listed apart in the source
# canine IL-4 [10] = biological target: T2, canine IL-4; assay: BLI (Octet)
# Procedure: as §1
Binder,Kd (canine IL-13 [1]) [nM],koff (canine IL-13 [1]) [s⁻¹],kon (canine IL-13 [1]) [M⁻¹ s⁻¹],Kd (canine IL-4 [7]) [nM],koff (canine IL-4 [7]) [s⁻¹],kon (canine IL-4 [7]) [M⁻¹ s⁻¹],also measured
B1,0.00044,5.07e-07,1.15e+06,,,,fold decrease of KD against unmodified cIL-13Rα2-cFc (canine IL-13 [2]): ~2 fold
B2,0.000744,7.45e-07,1e+06,,,,"Kd (canine IL-13 [3]): 0.0007 nM; IL-13 IC50 (inhibition of cIL-13 mediated STAT6 phosphorylation in DH82 cells) (canine IL-13 [4]): 0.165 nM; IL-13 (IC50), summary table (canine IL-13 [5]): 0.2 nM"
B3,0.000432,5.04e-07,1.17e+06,,,,fold decrease of KD against unmodified cIL-13Rα2-cFc (canine IL-13 [2]): ~2 fold
B4,16.5,0.0011,66500,,,,fold decrease in affinity against unmodified cIL-13Rα1-cFc (canine IL-13 [2]): ~4 fold
B5,,,,0.00118,8.3e-07,703000,"IL-4 IC50 (inhibition of cIL-4 mediated STAT6 phosphorylation in DH82 cells) (canine IL-4 [6]): 0.084 nM; Kd (canine IL-4 [8]): 0.001 nM; IL-4 (IC50), summary table (canine IL-4 [9]): 0.08 nM"
B6,,,,0.126,9.88e-05,785000,fold change of KD against the unmodified cIL-4Rα-cFc homodimer (canine IL-4 [10]): ~100 fold
B7,,,,0.0111,9.23e-06,830000,fold change of KD against the unmodified cIL-4Rα-cFc homodimer (canine IL-4 [10]): ~10 fold

# From patent US20250325630A1, “HOMODIMER FUSION PROTEINS FOR TREATING ATOPIC DERMATITIS” (Intervet Inc., priority 2021, published 2025)
